# Test results published in patent US20180155451A1 (published 2018).
# B1: GpH7-A5/GpH7-B3 variant N325_01G/GpL16-k0 (antibody, human IgG1, kappa)
# heavy 1: not shown
# heavy 2: not shown
# light: DIVMTQSPLSLPVTPGEPASISCQASESLVHSNRNTYLHWYLQKPGQSPQLLIYKVSNRFSGVPDRFSGSGSGTDFTLKISRVEAEDVGVYYCSQNTHVPPTFGQGTKVEIERTVAAPSVFIFPPSDEQLKSGTASVVCLLNNFYPREAKVQWKVDNALQSGNSQESVTEQDSKDSTYSLSSTLTLSKADYEKHKVYACEVTHQGLSSPVTKSFNRGEC
# notes: Heterodimerized IgG1; alteration in one H chain only; also called He Ab
# B2: GpH7-A5/GpH7-B3 variant A327_01G/GpL16-k0 (antibody, human IgG1, kappa)
# heavy 1: not shown
# heavy 2: not shown
# light: B1 light
# notes: as for B1
# B3: GpH7-A5/GpH7-B3 variant A327_03V/GpL16-k0 (antibody, human IgG1, kappa)
# heavy 1: not shown
# heavy 2: not shown
# light: B1 light
# notes: as for B1
# B4: GpH7-A5/GpH7-B3 variant A327_04F/GpL16-k0 (antibody, human IgG1, kappa)
# heavy 1: not shown
# heavy 2: not shown
# light: B1 light
# notes: as for B1
# B5: GpH7-A5/GpH7-B3 variant A327_07I/GpL16-k0 (antibody, human IgG1, kappa)
# heavy 1: not shown
# heavy 2: not shown
# light: B1 light
# notes: as for B1
# B6: GpH7-A5/GpH7-B3 variant A327_08L/GpL16-k0 (antibody, human IgG1, kappa)
# heavy 1: not shown
# heavy 2: not shown
# light: B1 light
# notes: as for B1
# B7: GpH7-A5/GpH7-B3 variant A327_09D/GpL16-k0 (antibody, human IgG1, kappa)
# heavy 1: not shown
# heavy 2: not shown
# light: B1 light
# notes: as for B1
# B8: GpH7-A5/GpH7-B3 variant A327_10E/GpL16-k0 (antibody, human IgG1, kappa)
# heavy 1: not shown
# heavy 2: not shown
# light: B1 light
# notes: as for B1
# B9: GpH7-A5/GpH7-B3 variant A327_14T/GpL16-k0 (antibody, human IgG1, kappa)
# heavy 1: not shown
# heavy 2: not shown
# light: B1 light
# notes: as for B1
# B10: GpH7-A5/GpH7-B3 variant A327_15Y/GpL16-k0 (antibody, human IgG1, kappa)
# heavy 1: not shown
# heavy 2: not shown
# light: B1 light
# notes: as for B1
# B11: GpH7-A5/GpH7-B3 variant A327_16H/GpL16-k0 (antibody, human IgG1, kappa)
# heavy 1: not shown
# heavy 2: not shown
# light: B1 light
# notes: as for B1
# B12: GpH7-A5/GpH7-B3 variant A327_18N/GpL16-k0 (antibody, human IgG1, kappa)
# heavy 1: not shown
# heavy 2: not shown
# light: B1 light
# notes: as for B1
# B13: GpH7-A5/GpH7-B3 variant A327_20W/GpL16-k0 (antibody, human IgG1, kappa)
# heavy 1: not shown
# heavy 2: not shown
# light: B1 light
# notes: as for B1
# B14: GpH7-A5/GpH7-B3 variant K326_03V/GpL16-k0 (antibody, human IgG1, kappa)
# heavy 1: not shown
# heavy 2: not shown
# light: B1 light
# notes: as for B1
# B15: GpH7-A5/GpH7-B3 variant K326_04F/GpL16-k0 (antibody, human IgG1, kappa)
# heavy 1: not shown
# heavy 2: not shown
# light: B1 light
# notes: as for B1
# Target: T1, FcγRIIb extracellular domain with C-terminal His tag (human, UniProt P31994 43-217)
# T1 construct: extracellular domain; also called FcgRIIb; 2b; not shown: His tag attached to the C terminus
# T1 sequence (looked up): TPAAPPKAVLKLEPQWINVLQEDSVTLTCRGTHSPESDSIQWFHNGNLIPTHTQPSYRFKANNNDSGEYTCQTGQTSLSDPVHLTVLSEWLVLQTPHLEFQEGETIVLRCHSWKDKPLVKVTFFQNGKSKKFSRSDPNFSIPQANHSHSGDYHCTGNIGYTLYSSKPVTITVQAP
# Test: SPR (Biacore), relative binding
# Protocol: (§1) Analysis of interaction between objective antibody and the FcγR was carried out using Biacore T100 (GE Healthcare). HBS-EP+ (GE Healthcare) was used as the running buffer, and the measurement temperature was set to 25° C. Chips produced by immobilizing the antigen peptide by the amine coupling method to a Series S Sencor Chip CM5 (GE Healthcare), or alternatively, chips produced by allowing preliminarily biotinylated antigen peptides to interact with and immobilize onto a Series S Sensor Chip SA (certified) (GE Healthcare) were used. Antibodies of interest were captured onto an antigen peptide-immobilized chip, and allowed to interact to each FcγR diluted with running buffer. To regenerate and repeatedly use the chip, the antibodies captured on the chip were washed off by reacting 10 mM glycine-HCl, pH 1.5.
# (§2) The FcγR-binding activity of each antibody was assessed primarily using as an indicator the FcγR-binding activity and dissociation constant for FcγR.
row,Binder,He/Con_2b (IIb binding)
1,B1,101 % of GpH7-A5/GpH7-B3/GpL16-k0 (=100)
2,B2,116 % of GpH7-A5/GpH7-B3/GpL16-k0 (=100)
3,B3,94.7 % of GpH7-A5/GpH7-B3/GpL16-k0 (=100)
4,B4,63.7 % of GpH7-A5/GpH7-B3/GpL16-k0 (=100)
5,B5,127 % of GpH7-A5/GpH7-B3/GpL16-k0 (=100)
6,B6,63.1 % of GpH7-A5/GpH7-B3/GpL16-k0 (=100)
7,B7,172 % of GpH7-A5/GpH7-B3/GpL16-k0 (=100)
8,B8,140 % of GpH7-A5/GpH7-B3/GpL16-k0 (=100)
9,B9,89.4 % of GpH7-A5/GpH7-B3/GpL16-k0 (=100)
10,B10,60.8 % of GpH7-A5/GpH7-B3/GpL16-k0 (=100)
11,B11,63.5 % of GpH7-A5/GpH7-B3/GpL16-k0 (=100)
12,B12,113 % of GpH7-A5/GpH7-B3/GpL16-k0 (=100)
13,B13,78.8 % of GpH7-A5/GpH7-B3/GpL16-k0 (=100)
14,B14,175 % of GpH7-A5/GpH7-B3/GpL16-k0 (=100)
15,B15,155 % of GpH7-A5/GpH7-B3/GpL16-k0 (=100)

# Target: T2, FcγRIIIa extracellular domain with C-terminal His tag (human, UniProt P08637 17-208)
# T2 construct: extracellular domain; also called FcgRIIIa; 3a; not shown: His tag attached to the C terminus
# Test: SPR (Biacore), relative binding
# Protocol: as §1, §2
# T2 sequence (P08637 17-208): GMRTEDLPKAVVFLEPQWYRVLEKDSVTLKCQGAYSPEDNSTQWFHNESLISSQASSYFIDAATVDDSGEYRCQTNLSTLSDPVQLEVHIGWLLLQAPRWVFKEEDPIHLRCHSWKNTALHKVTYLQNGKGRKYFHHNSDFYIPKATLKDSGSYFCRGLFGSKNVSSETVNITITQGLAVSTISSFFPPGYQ
row,Binder,He/Con_3a (IIIa binding)
1,B1,28 % of GpH7-A5/GpH7-B3/GpL16-k0 (=100)
2,B2,72.4 % of GpH7-A5/GpH7-B3/GpL16-k0 (=100)
3,B3,45.8 % of GpH7-A5/GpH7-B3/GpL16-k0 (=100)
4,B4,46.2 % of GpH7-A5/GpH7-B3/GpL16-k0 (=100)
5,B5,42.4 % of GpH7-A5/GpH7-B3/GpL16-k0 (=100)
6,B6,42 % of GpH7-A5/GpH7-B3/GpL16-k0 (=100)
7,B7,83.7 % of GpH7-A5/GpH7-B3/GpL16-k0 (=100)
8,B8,68.6 % of GpH7-A5/GpH7-B3/GpL16-k0 (=100)
9,B9,41.4 % of GpH7-A5/GpH7-B3/GpL16-k0 (=100)
10,B10,46.8 % of GpH7-A5/GpH7-B3/GpL16-k0 (=100)
11,B11,43.7 % of GpH7-A5/GpH7-B3/GpL16-k0 (=100)
12,B12,61.1 % of GpH7-A5/GpH7-B3/GpL16-k0 (=100)
13,B13,51.2 % of GpH7-A5/GpH7-B3/GpL16-k0 (=100)
14,B14,122 % of GpH7-A5/GpH7-B3/GpL16-k0 (=100)
15,B15,103 % of GpH7-A5/GpH7-B3/GpL16-k0 (=100)

# Target: T2, FcγRIIIa extracellular domain with …
# Test: SPR (Biacore); He/Con_3a divided by He/Con_2b (reference: binding to FcγRIIb)
# Protocol: as §1, §2
row,Binder,He_3a/2b (IIIa/IIb) [ratio]
1,B1,0.28
2,B2,0.63
3,B3,0.48
4,B4,0.72
5,B5,0.33
6,B6,0.67
7,B7,0.49
8,B8,0.49
9,B9,0.46
10,B10,0.77
11,B11,0.69
12,B12,0.54
13,B13,0.65
14,B14,0.7
15,B15,0.66
